Measurements published in patent US7272508B2, “Small molecule mimetics of erythropoietin” (The Scripps Research Institute, priority 1996, dated 2007).
Positions of bridges follow the written chain, without caps; N, C: chain ends. No end group written: not given here.

B1: EPO binding protein (EBP), extracellular fragment of human EPO receptor, residues 1-225 (receptor, UniProt P19235 25-249, looked up)
chain: APPPNLPDPKFESKAALLAARGPEELLCFTERLEDLVCFWEEAASAGVGPGNYSFSYQLEDEPWKLCRLHQAPTARGAVRFWCSLPTADTSSFVPLELRVTAASGAPRYHRVIHINEVVLLDAPVGLVARLADESGHVVLRWLPPPETPMTSHIRYEVDVSAGNGAGSVQRVEILEGRTECVLSNLRGRTRYTFAVRARMAEPSFGGFWSAWSEPVSLLTPSDLD
notes: range 1-225; they probably count on the mature receptor without signal peptide; Two EBP molecules stand in the asymmetric unit with two peptides; also called EBP1; EBP2

Experiments:
[1] = target: T1, EPO receptor (Homo sapiens, UniProt P19235); assay: receptor binding assays, competition with EPO
T1 sequence (P19235 25-508): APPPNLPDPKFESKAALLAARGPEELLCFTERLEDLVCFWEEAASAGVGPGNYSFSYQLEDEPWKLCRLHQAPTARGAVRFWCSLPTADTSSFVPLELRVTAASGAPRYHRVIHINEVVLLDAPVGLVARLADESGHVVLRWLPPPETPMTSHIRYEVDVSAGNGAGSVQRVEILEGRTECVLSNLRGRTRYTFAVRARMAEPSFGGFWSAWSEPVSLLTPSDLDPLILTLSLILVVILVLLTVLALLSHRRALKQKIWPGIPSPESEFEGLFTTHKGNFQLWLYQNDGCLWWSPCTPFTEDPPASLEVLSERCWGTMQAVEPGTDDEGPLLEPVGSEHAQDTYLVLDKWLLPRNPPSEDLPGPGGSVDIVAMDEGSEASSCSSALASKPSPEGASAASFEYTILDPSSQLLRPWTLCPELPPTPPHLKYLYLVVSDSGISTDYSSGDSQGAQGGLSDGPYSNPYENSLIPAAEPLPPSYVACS

[2] = system: cell lines engineered to be responsive to EPO; assay: cellular proliferation of cell lines engineered to be responsive to EPO; format: cell-based
[3] = system: EPO responsive cells; assay: phosphorylation events and cell cycle progression in EPO responsive cells; format: cell-based
[4] = system: nascent red blood cell production; assay: in vivo assays of nascent red blood cell production; conditions: mice; two different in vivo assays of nascent red blood cell production
[5] = target: T2, EBP (extracellular fragment of human EPO receptor, residues 1-225) (Homo sapiens, UniProt P19235); assay: DPDPB crosslinking of EBP in solution (peptide-dependent dimerization); format: biochemical; conditions: co-incubation of EMP1, DPDPB and EBP; no significant dimer in the absence of peptide
T2 construct: consisting of residues 1-225, was expressed in Escherichia coli; made in house; host or cells: Escherichia coli
T2 sequence (P19235 25-249): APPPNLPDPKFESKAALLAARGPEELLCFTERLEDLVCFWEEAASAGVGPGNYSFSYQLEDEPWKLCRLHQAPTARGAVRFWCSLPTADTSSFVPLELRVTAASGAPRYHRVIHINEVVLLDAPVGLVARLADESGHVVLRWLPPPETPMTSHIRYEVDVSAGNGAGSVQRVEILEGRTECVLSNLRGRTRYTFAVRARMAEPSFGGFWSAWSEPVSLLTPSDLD
Description: To explore the interaction of EMP1 with EBP in solution we employed a bifunctionalsulphydryl reactive crosslinker DPDPB, [1,4-di-(2′-pyridyldithio propionamido) butane], in an attempt to stabilize a peptide-dependent dimeric structure. […] A dimeric EBP product is formed by co-incubation of EMP1, DPDPB and EBP. The amount of dimeric product increases with peptide concentration and no significant dimer product is observed in the absence of peptide. DPDPB-crosslinked products formed through disulfide-exchange reactions should be readily reversible by reduction as is seen for the covalently-linked EMP1-mediated dimer. […] The Cys^181 residues in D2 of the EBP dimer are 20.7 Å apart (Sγ-Sγ distance) which approximates the 16 Å length (and approximately 2 Å in bond length at each end) of the DPDPB cross-linker.

[6] = target: B1; assay: DPDPB crosslinking in solution; dimeric product increases with peptide concentration
[7] = target: the molecule itself; assay: DPDPB sulphydryl crosslinking of EBP in solution

## GGTYSCHFGPLTWVCKPQGG (disulfide 6-15 (inferred)) [EMP1]
[1]
  competition with EPO in receptor binding assays: competes with EPO
[2]
  induction of cellular proliferation: induces cellular proliferation
[3]
  cascade of phosphorylation events and cell cycle progression: induce a similar cascade of phosphorylation events and cell cycle progression
[4]
  erythropoietic effects: significant erythropoietic effects
[5]
  formation of dimeric EBP product: mediates formation of a soluble EBP dimer complex in solution

## GGTYSCHFGPLTWVCKPQGG (disulfide 6-15, also called RWJ 61233; peptide-2) [EMP1 (EPO Mimetic Peptide 1)]
[6]
  binding result: binds

## B1
[7]
  binding result: no binding
